Sequences and labels used below:
B1: Ire1 luminal domain, complete (region I–V, residues 24–440) (domain or fragment, human, UniProt O75460 24-440, looked up)
chain: STVTLPETLLFVSTLDGSLHAVSKRTGSIKWTLKEDPVLQVPTHVEEPAFLPDPNDGSLYTLGSKNNEGLTKLPFTIPELVQASPCRSSDGILYMGKKQDIWYVIDLLTGEKQQTLSSAFADSLCPSTSLLYLGRTEYTITMYDTKTRELRWNATYFDYAASLPEDDVDYKMSHFVSNGDGLVVTVDSESGDVLWIQNYASPVVAFYVWQREGLRKVMHINVAVETLRYLTFMSGEVGRITKWKYPFPKETEAKSKLTPTLYVGKYSTSLYASPSMVHEGVAVVPRGSTLPLLEGPQTDGVTIGDKGECVITPSTDVKFDPGLKSKNKLNYLRNYWLLIGHHETPLSASTKMLERFPNNLPKHRENVIPADSEKKSFEEVINLVDQTSENAPTTVSRDVEEKPAHAPARPEAPVDSM
notes: Ire1, human, luminal domain regions I-V, residues 24-440; also called Ire1 I–V; Ire1 LD; source: E. coli BL21 (DE3), purified (Co2+-NTA, anion exchange, SEC); not shown: His6, N-terminal, cleaved
B2: Ire1 luminal domain region II–IV (residues 32–390) (domain or fragment, human, UniProt O75460 32-390, looked up)
chain: LLFVSTLDGSLHAVSKRTGSIKWTLKEDPVLQVPTHVEEPAFLPDPNDGSLYTLGSKNNEGLTKLPFTIPELVQASPCRSSDGILYMGKKQDIWYVIDLLTGEKQQTLSSAFADSLCPSTSLLYLGRTEYTITMYDTKTRELRWNATYFDYAASLPEDDVDYKMSHFVSNGDGLVVTVDSESGDVLWIQNYASPVVAFYVWQREGLRKVMHINVAVETLRYLTFMSGEVGRITKWKYPFPKETEAKSKLTPTLYVGKYSTSLYASPSMVHEGVAVVPRGSTLPLLEGPQTDGVTIGDKGECVITPSTDVKFDPGLKSKNKLNYLRNYWLLIGHHETPLSASTKMLERFPNNLPKHRENV
notes: Ire1, human, luminal domain regions II-IV, residues 32-390; With cross linker it forms dimer and tetramer species; also called Ire1 II–IV; Ire1 LD for cross-link experiment; source: E. coli BL21 (DE3), purified (Co2+-NTA, anion exchange, SEC); not shown: His6, N-terminal, cleaved
B3: His6-tagged BiP ATPase domain (residues 28–405) (domain or fragment)
chain: not shown
notes: BiP, human, ATPase domain, residues 28-405; also called His6-tagged BiP ATPase domain protein; source: E. coli BL21 (DE3), purified (Co2+-NTA, anion exchange, SEC); not shown: His6, N-terminal, kept
B4: unfolded protein CH1 (immunoglobulin constant heavy chain domain) (domain or fragment)
chain: not shown
notes: immunoglobulin constant heavy chain domain CH1, intrinsically unfolded without CL; also called CH1 substrate; source: expressed as previously described (Marcinowski et al., 2011)
B5: Perk luminal domain region I–IV (residues 54–403) (domain or fragment, human, UniProt Q9NZJ5 54-403, looked up)
chain: TSATRVPAAGAVAAAEVTVEDAEALPAAAGEQEPRGPEPDDETELRPRGRSLVIISTLDGRIAALDPENHGKKQWDLDVGSGSLVSSSLSKPEVFGNKMIIPSLDGALFQWDQDRESMETVPFTVESLLESSYKFGDDVVLVGGKSLTTYGLSAYSGKVRYICSALGCRQWDSDEMEQEEDILLLQRTQKTVRAVGPRSGNEKWNFSVGHFELRYIPDMETRAGFIESTFKPNENTEESKIISDVEEQEAAIMDIVIKVSVADWKVMAFSKKGGHLEWEYQFCTPIASAWLLKDGKVIPISLFDDTSYTSNDDVLEDEEDIVEAARGATENSVYLGMYRGQLYLQSSVRI
notes: Perk, human, luminal domain regions I-IV, residues 54-403; also called Perk I–IV; source: E. coli BL21 (DE3), purified (Co2+-NTA, anion exchange, SEC); not shown: His6, N-terminal, cleaved
B6: Ire1 luminal domain region I–IV (residues 24–390) (domain or fragment, human, UniProt O75460 24-390, looked up)
chain: STVTLPETLLFVSTLDGSLHAVSKRTGSIKWTLKEDPVLQVPTHVEEPAFLPDPNDGSLYTLGSKNNEGLTKLPFTIPELVQASPCRSSDGILYMGKKQDIWYVIDLLTGEKQQTLSSAFADSLCPSTSLLYLGRTEYTITMYDTKTRELRWNATYFDYAASLPEDDVDYKMSHFVSNGDGLVVTVDSESGDVLWIQNYASPVVAFYVWQREGLRKVMHINVAVETLRYLTFMSGEVGRITKWKYPFPKETEAKSKLTPTLYVGKYSTSLYASPSMVHEGVAVVPRGSTLPLLEGPQTDGVTIGDKGECVITPSTDVKFDPGLKSKNKLNYLRNYWLLIGHHETPLSASTKMLERFPNNLPKHRENV
notes: Ire1, human, luminal domain regions I-IV, residues 24-390; also called Ire1 I–IV; source: E. coli BL21 (DE3), purified (Co2+-NTA, anion exchange, SEC); not shown: His6, N-terminal, cleaved
B7: BiP ATPase domain (residues 28–405), His6-tag removed (domain or fragment)
chain: not shown
notes: BiP, human, ATPase domain, residues 28-405; also called BiP's ATPase domain; source: E. coli BL21 (DE3), purified (Co2+-NTA, anion exchange, SEC); not shown: His6, N-terminal, cleaved
B8: Perk luminal domain, complete (region I–V, residues 54–509) (domain or fragment, human, UniProt Q9NZJ5 54-509, looked up)
chain: TSATRVPAAGAVAAAEVTVEDAEALPAAAGEQEPRGPEPDDETELRPRGRSLVIISTLDGRIAALDPENHGKKQWDLDVGSGSLVSSSLSKPEVFGNKMIIPSLDGALFQWDQDRESMETVPFTVESLLESSYKFGDDVVLVGGKSLTTYGLSAYSGKVRYICSALGCRQWDSDEMEQEEDILLLQRTQKTVRAVGPRSGNEKWNFSVGHFELRYIPDMETRAGFIESTFKPNENTEESKIISDVEEQEAAIMDIVIKVSVADWKVMAFSKKGGHLEWEYQFCTPIASAWLLKDGKVIPISLFDDTSYTSNDDVLEDEEDIVEAARGATENSVYLGMYRGQLYLQSSVRISEKFPSSPKALESVTNENAIIPLPTIKWKPLIHSPSRTPVLVGSDEFDKCLSNDKFSHEEYSNGALSILQYPYDNGYYLPYYKRERNKRSTQITVRFLDNPHYNKN
notes: Perk, human, luminal domain regions I-V, residues 54-509; see recheck on the SEC MALS mass; also called Perk I–V; Perk LD; source: E. coli BL21 (DE3), purified (Co2+-NTA, anion exchange, SEC); not shown: His6, N-terminal, cleaved

The target of data set [1] is T1, full-length BiP (BiP FL, residues 28–654), His6-tag removed (human, UniProt P11021 28-654).
T1 construct: BiP (ER Hsp70 chaperone), human, residues 28-654; In MST one partner carried the Red-NHS label; also called ER Hsp70 chaperone; source: E. coli BL21 (DE3), purified (Co2+-NTA, anion exchange, SEC); not shown: His6, N-terminal, cleaved
T1 sequence (P11021 28-654): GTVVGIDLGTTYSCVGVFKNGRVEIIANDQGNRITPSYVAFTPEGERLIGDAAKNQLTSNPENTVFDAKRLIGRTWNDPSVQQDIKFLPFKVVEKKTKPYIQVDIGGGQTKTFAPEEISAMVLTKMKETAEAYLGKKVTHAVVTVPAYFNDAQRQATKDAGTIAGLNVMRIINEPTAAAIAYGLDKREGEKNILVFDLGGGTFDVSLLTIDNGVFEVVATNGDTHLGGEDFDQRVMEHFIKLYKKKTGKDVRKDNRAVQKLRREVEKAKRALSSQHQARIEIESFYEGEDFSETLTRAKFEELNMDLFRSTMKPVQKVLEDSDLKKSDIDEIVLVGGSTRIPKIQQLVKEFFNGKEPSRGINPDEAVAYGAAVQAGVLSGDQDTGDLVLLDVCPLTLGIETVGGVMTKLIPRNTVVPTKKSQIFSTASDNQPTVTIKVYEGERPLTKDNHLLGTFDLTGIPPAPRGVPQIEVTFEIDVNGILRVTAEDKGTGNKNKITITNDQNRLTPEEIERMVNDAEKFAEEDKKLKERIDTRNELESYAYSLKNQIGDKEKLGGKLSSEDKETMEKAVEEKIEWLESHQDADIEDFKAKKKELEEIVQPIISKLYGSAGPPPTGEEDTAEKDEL
The experiment in a line: MST; Monolith NT.115; buffer B (50 mM HEPES pH 7.5, 75 mM NaCl, 10% glycerol, 1 mM TCEP), no nucleotide; one partner labelled (Red-NHS) at 50 nM, sixteen twofold dilutions of the unlabelled partner (which was labelled is not told); 25°C; three independent experiments averaged. The settings on record: both partners purified.

The data set “SEC-MALS” concerns the molecule itself. Put plainly: SEC-MALS.
Data set [2] addresses T2, ΔEspP, yeast Ire1-specific unfolded peptide mimic.
T2 construct: also called unfolded protein peptide mimic; source: bought: AltaBiosciences
Put plainly: ITC. The settings on record: both partners purified.

Data set [3] concerns the target B7. The experiment in a line: MST; Monolith NT.115; buffer B (50 mM HEPES pH 7.5, 75 mM NaCl, 10% glycerol, 1 mM TCEP), no nucleotide; one partner labelled (Red-NHS) at 50 nM, sixteen twofold dilutions of the unlabelled partner (which was labelled is not told); 25°C; three independent experiments averaged. The settings on record: both partners purified.
Data set [4] deals with the molecule itself. Put plainly: cross-linking; EGS, 50-fold molar excess, 1 hr; proteins at 50 μM in 50 mM Hepes pH 8.0, 50 mM NaCl, 5% glycerol, 5 mM DTT; alone or in 1:1 molar mixture; SDS-PAGE and anti-His6 blot.
Data set [5] has as its target B2. Described as above. To be noted: both partners purified.
The target of data set [6] is T3, BiP substrate binding domain (residues 422–654), His6-tag removed (human, UniProt P11021 422-654).
T3 construct: also called BiP SBD; source: E. coli BL21 (DE3), purified (Co2+-NTA, anion exchange, SEC); not shown: His6, N-terminal, cleaved
T3 sequence (P11021 422-654): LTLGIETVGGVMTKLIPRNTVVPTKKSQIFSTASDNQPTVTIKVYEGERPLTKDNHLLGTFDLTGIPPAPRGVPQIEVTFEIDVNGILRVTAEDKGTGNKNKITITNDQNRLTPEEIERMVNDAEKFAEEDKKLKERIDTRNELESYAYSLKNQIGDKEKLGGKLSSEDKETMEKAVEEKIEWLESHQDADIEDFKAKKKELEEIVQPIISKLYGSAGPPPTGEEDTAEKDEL
The experiment in a line: MST; Monolith NT.115; buffer B (50 mM HEPES pH 7.5, 75 mM NaCl, 10% glycerol, 1 mM TCEP), no nucleotide; one partner labelled (Red-NHS) at 50 nM, sixteen twofold dilutions of the unlabelled partner (which was labelled is not told); 25°C; three independent experiments averaged. To be noted: both partners purified.

The target in data set [7] is B8. The data set is described as above. The settings on record: both partners purified.
The target of data set [8] is B1. The data set is described as above. The settings on record: both partners purified.

Several values for one entry are separate records, joined by “and”; a condition that tells them apart may be missing. Equal entries are not always repeated.

This note sets out measurements from publication PMC4337721, “Noncanonical binding of BiP ATPase domain to Ire1 and Perk is dissociated by unfolded protein CH1 to initiate ER stress signaling” (eLife, 2015).

As for B1, the Kd (as a rule, the equilibrium constant for the complex coming apart) was 1.33 µM in data set [1] and 6.4 µM in [2]. Moreover, the stoichiometry N (commonly a count of units in the complex or per binding partner) in the data set “SEC-MALS” is 2.
On to B2, for which the binding result in data set [3] was “binds”. Moreover, in data set [4], the “stoichiometry N” value was 2 and 4.
With B3, in data set [5], the “stoichiometry N” value was 1 1:1 and 2 2:1 (which of the two stands twice is not said).
As for B4, the results for the Kd in [6] and in [1] were 5.1 µM and 8.7 µM, respectively.
B5: the binding result in [3] is “binds”.
With B6, the binding result in data set [3] is “binds”.
B7: the Kd in [7] is 2.05 µM; in data set [8], 1.97 µM.
For B8, the figures for the dissociation constant Kd in [1] and in [2] were 1.92 µM and 9.3 µM, respectively. Also, the “stoichiometry N” value in the data set “SEC-MALS” was 2.
